Laboratory results taken from US12624075B2, “Immune inducer” (TORAY INDUSTRIES, INC., priority 2015, dated 2026).

Tests used:
14 types of cancer cells = experiment: Direct exposure of cancer cells to the polypeptides (direct killing); assay type: cell-based, human; conditions: cancer cells exposed to the polypeptides or protein without T cells
Jurkat cells = experiment: Cytotoxicity assay (chromium 51 release) of induced HLA-A0201-positive CD8-positive T cells against Jurkat cells; assay type: cell-based, human; conditions: 5×10^4 T cells with 1×10^3 Jurkat cells, 4 hours; FIG. 4B; higher/lower = SEQ ID NOs: 3 to 19 versus SEQ ID NOs: 75 to 83 and full-length PDS5A protein
From the text: Subsequently, the following were examined: whether or not the polypeptides having the amino acid sequences represented by SEQ ID NOs: 3 to 19, which are used in the present invention, are presented on the HLA-A0201 molecules on tumor cells which are HLA-A0201-positive and which express human PDS5A protein; whether or not the CD8-positive T cells stimulated with the polypeptides according to the present invention can damage the tumor cells which are HLA-A0201-positive and which express the human PDS5A protein; and further, whether or not the above described CD8-positive T cells have a markedly higher ability to damage the tumor cells as compared to the CD8-positive T cells stimulated with the known peptides (SEQ ID NOs: 75 to 83) and those stimulated with the PDS5A protein.
Each of the total 10 types of cell lines whose expression of human PDS5A protein has been confirmed, namely: a human glioma (malignant brain tumor) cell line U251 cells; a leukemia cell line Jurkat cells; a liver cancer cell line SK-Hep1; a breast cancer cell line MCF7; a pancreatic cancer cell line Panc1; an ovarian cancer cell line OVCAR3; a renal cancer cell line A498; a colorectal cancer cell line HCT116; a stomach cancer cell line KATO3; and a lung cancer cell line NCI-H522 (purchased from ATCC); were collected into a 50 mL centrifugal tube, in an amount of 1×10^6 cells each. […]

B1: full-length PDS5A protein: human PDS5A protein of 1337 amino acid residues, prepared according to Example 5 in WO 2011/027807; Comparative Example (protein, listed as Homo sapiens)
chain: MDFTAQPKPATALCGVVSADGKIAYPPGVKEITDKITTDEMIKRLKMVVKTFMDMDQDSEDEKQQYLPLALHLASEFFLRNPNKDVRLLVACCLADIFRIYAPEAPYTSHDKLKDIFLFITRQLKGLEDTKSPQFNRYFYLLENLAWVKSYNICFELEDCNEIFIQLFRTLFSVINNSHNKKVQMHMLDLMSSIIMEGDGVTQELLDSILINLIPAHKNLNKQSFDLAKVLLKRTVQTIEACIANFFNQVLVLGRSSVSDLSEHVFDLIQELFAIDPHLLLSVMPQLEFKLKSNDGEERLAVVRLLAKLFGSKDSDLATQNRPLWQCFLGRFNDIHVPVRLESVKFASHCLMNHPDLAKDLTEYLKVRSHDPEEAIRHDVIVTIITAAKRDLALVNDQLLGFVRERTLDKRWRVRKEAMMGLAQLYKKYCLHGEAGKEAAEKVSWIKDKLLHIYYQNSIDDKLLVEKIFAQYLVPHNLETEERMKCLYYLYASLDPNAVKALNEMWKCQNMLRSHVRELLDLHKQPTSEANCSAMFGKLMTIAKNLPDPGKAQDFVKKFNQVLGDDEKLRSQLELLISPTCSCKQADICVREIARKLANPKQPTNPFLEMVKFLLERIAPVHIDSEAISALVKLMNKSIEGTADDEEEGVSPDTAIRSGLELLKVLSFTHPTSFHSAETYESLLQCLRMEDDKVAEAAIQIFRNTGHKIETDLPQIRSTLIPILHQKAKRGTPHQAKQAVHCIHAIFTNKEVQLAQIFEPLSRSLNADVPEQLITPLVSLGHISMLAPDQFASPMKSVVANFIVKDLLMNDRSTGEKNGKLWSPDEEVSPEVLAKVQAIKLLVRWLLGMKNNQSKSANSTLRLLSAMLVSEGDLTEQKRISKSDMSRLRLAAGSAIMKLAQEPCYHEIITPEQFQLCALVINDECYQVRQIFAQKLHKALVKLLLPLEYMAIFALCAKDPVKERRAHARQCLLKNISIRREYIKQNPMATEKLLSLLPEYVVPYMIHLLAHDPDFTRSQDVDQLRDIKECLWFMLEVLMTKNENNSHAFMKKMAENIKLTRDAQSPDESKTNEKLYTVCDVALCVINSKSALCNADSPKDPVLPMKFFTQPEKDFCNDKSYISEETRVLLLTGKPKPAGVLGAVNKPLSATGRKPYVRSTGTETGSNINVNSELNPSTGNRSREQSSEAAETGVSENEENPVRIISVTPVKNIDPVKNKEINSDQATQGNISSDRGKKRTVTAAGAENIQQKTDEKVDESGPPAPSKPRRGRRPKSESQGNATKNDDLNKPINKGRKRAAVGQESPGGLEAGNAKAPKLQDLAKKAAPAERQIDLQR
activity to directly kill the cancer cells (14 types of cancer cells): no cancer cells were killed at all
cytotoxic activity (Jurkat cells): markedly lower cytotoxic activity
